A short description of series [1]: Kinetic parameters of aminopeptidase II for p-nitroanilides at pH 7.0 and 25° C. To be noted: pH 7.0, 25° C. The format is biochemical. The protocol: The purified aminopeptidase II described in Example 11 was used in the following characterization.
Kinetic parameters of the aminopeptidase II were determined for several p-nitroanilides (pNA) including Leu-pNA, Gly-pNA, Ala-pNA, and Pro-pNA (Sigma Chemical Co., St. Louis, Mo., or Bachem, Torrance, Calif.). Stock solutions of 100 mg of each p-nitroanilide per ml of dimethylsulfoxide were diluted with 50 mM potassium phosphate pH 7.0 buffer to concentrations ranging from 0.0064 to 9.56 mM. […] The reaction of the aminopeptidase II with the p-nitroanilide was initiated when a 100 μl aliquot of the enzyme solution in 50 mM potassium phosphate pH 7.0 was added to 100 μl of a substrate solution in a microtiter plate well and monitored at 405 nm and 25° C. using a THERMOmax Microplate Reader (Molecular Devices Corp., Sunnyvale, Calif.).

Series [2] can be described thus: Kinetic parameters (Lineweaver-Burke plot) at pH 7.5. To be noted: for kcat: average molecular weight of 97 kDa used. The class given is biochemical. On the procedure: The kinetic parameters for various aminopeptidase II substrates was determined using the following protocol. Purified aminopeptidase II with an A280 of 0.581 was used. Each substrate was dissolved in DMSO to a concentration of 100 mg/ml and then diluted 50 fold in 50 mM sodium phosphate pH7.5 buffer to 2 mg/ml. The substrates included Leu-pNA, Glu-pNA (Bachem, Torrance, Calif.), and Ala-pNA. In a 96 well microtiter plate, 10 μl of purified aminopeptidase II was incubated with each substrate as follows except 50 µl of purified aminopeptidase II was incubated with Glu-pNA, and the absorbance at 405 nm was measured for 4 minutes:
1. 200 μl of 2 mg/ml substrate+0 μl of 50 mM sodium phosphate buffer pH 7.5
2. 100 μl of 2 mg/ml substrate+100 μl of 50 mM sodium phosphate buffer pH 7.5
3. 50 μl of 2 mg/ml substrate+150 μl of 50 mM sodium phosphate buffer pH 7.5
4. 25 μl of 2 mg/ml substrate+175 μl of 50 mM sodium phosphate buffer pH 7.5

Where [3] appears, read: substrate Ala-pNA, enzyme of Example 11.
The mark [4] stands for this setting: substrate Gly-pNA, enzyme of Example 11.
Where [5] appears, read: substrate Pro-pNA, enzyme of Example 11.

B1: aminopeptidase II: Recombinant Aspergillus oryzae 1568 (ATCC 20386) aminopeptidase II, 496 amino acids (SEQ ID NO:2), produced in Aspergillus oryzae or Fusarium (protein)
chain: MRSLLWASLLSGVLAGRALVSPDEFPEDIQLEDLLEGSQQLEDFAYAYPERNRVFGGKAHDDTVNYLYEELKKTGYYDVYKQPQVHLWSNADQTLKVGDEEIEAKTMTYSPSVEVTADVAVVKNLGCSEADYPSDVEGKVALIKRGECPFGDKSVLAAKAKAAASIVYNNVAGSMAGTLGAAQSDKGPYSAIVGISLEDGQKLIKLAEAGSVSVDLWVDSKQENRTTYNVVAQTKGGDPNNVVALGGHTDSVEAGPGINDDGSGIISNLVIAKALTQYSVKNAVRFLFWTAEEFGLLGSNYYVSHLNATELNKIRLYLNFDMIASPNYALMIYDGDGSAFNQSGPAGSAQIEKLFEDYYDSIDLPHIPTQFDGRSDYEAFILNGIPSGGLFTGAEGIMSEENASRWGGQAGVAYDANYHAAGDNMTNLNHEAFLINSKATAFAVATYANDLSSIPKRNTTSSLHRRARTMRPFGKRAPKTHAHVSGSGCWHSQVEA
Broadly, the Km is the concentration of substrate that gives half-maximal velocity. By kcat is commonly meant the number of substrate molecules converted per active site and unit of time at saturation. With B1, the Km came out at 11000 µM in series [1] (setting [3]); 300 µM in series [1] (setting [4]); 7000 µM in series [1] (substrate Leu-pNA, enzyme of Example 11 (produced in Aspergillus)); 2000 µM in series [1] (setting [5]); 1490 µM in series [2] (substrate Ala-pNA, enzyme of Example 15); 1170 µM in series [2] (substrate Glu-pNA, enzyme of Example 15). For the same molecule, in series [2] (substrate Leu-pNA, enzyme of Example 15 (produced by Fusarium)), the Km was determined as 5780 µM. In addition, the Vmax in series [1] (setting [3]) worked out at 1200 relative units; in series [1] (setting [4]), 1670 relative units; in series [1] (substrate Leu-pNA, enzyme of Example 11) it was 6400 relative units; in series [1] (setting [5]) it was 120 relative units. The kcat stood at 0.137 s⁻¹ in series [2] (substrate Glu-pNA) and 3.848 s⁻¹ in series [2] (substrate Leu-pNA).

Values taken from patent publication US6800467B1, “Polypeptides having aminopeptidase activity and nucleic acids encoding same” (Novozymes Biotech, Inc., priority 1997, dated 2004).
